Reference: patent publication US20110118131A1 (published 2011)
“And” between values parts separate entries of the source, which are not always exact repeats. Identical values can stand only once.

What was measured:
[1] = biological target: biotinylated Ep-Cam (UniProt P16422); assay: DELFIA competition, negative control well, biotinylated Ep-Cam, plate-coated parental ING-1 IgG as competitor
[2] = biological target: T1, Ep-CAM (UniProt P16422 24-265); assay: Biacore SPR; Fig. 15C
T1 chain: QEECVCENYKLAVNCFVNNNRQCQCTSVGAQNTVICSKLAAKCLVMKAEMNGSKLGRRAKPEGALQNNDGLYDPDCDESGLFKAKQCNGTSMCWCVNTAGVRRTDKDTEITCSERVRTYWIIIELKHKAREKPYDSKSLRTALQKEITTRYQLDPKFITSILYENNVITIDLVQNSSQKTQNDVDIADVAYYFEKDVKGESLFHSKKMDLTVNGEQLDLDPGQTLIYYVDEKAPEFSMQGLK

[3] = biological target: T1, Ep-CAM; assay: Biacore SPR; Fig. 15B
[4] = biological target: IL-1β (UniProt P01584 117-269); assay: Biacore kinetic titration, IL-1β amine coupled to CM5 chip, 25 C
Experimental: In an exemplary method, an antigen such as IL-1β is amine coupled to a CM5 sensor chip. Each sample (e.g., from lowest to highest concentration) may be injected for 240 seconds at a flow rate of 30 µl/min at a selected temperature (e.g., 25° C.). Sample are allowed to dissociate for 30 seconds except the highest concentration which may be permitted 300 seconds to dissociate. The assay is run at 25° C.
Biaevaluation software (e.g., Biacore 2000 evaluation software) is used to calculate dissociation rates of individual samples and the relative amount of sample bound to each test surface. The data is fit to an appropriate kinetic model (e.g., the kinetic titration model).

**Q.** For negative control (wells E12-H12), which Percentage of inhibition [1] is on record?
**A.** -0.4% and 0.1% and 0.3%

B1: modified ING-1 IgG with a 102G substitution (antibody, V domains shown)
VH: QIQLVQSGPELKKPGETVKISCKASGYTFTKYGMNWVKQAPGKGLKWMGWINTYTEEPTYGDDFKGRFAFSLETSASTANLQINNLKSEDTATYFCARFGSGVDYWGQGTSVTVSS
VL: QIVMTQAAFSNPVTLGTSGSISCRSSKSLLHSNGITYLYWYLQKPGQSPQLLIYQMSNLASGVPDRFSSSGSGTDFTLRISRVEAEDVGVYYCAQNLELPRTFGGGTKLEMKR
**Q.** With B1 as the molecule, how does the Kd [2] read?
**A.** 0.6 nM

B2: modified ING-1 IgG with an A102F substitution (antibody, V domains shown)
VH: QIQLVQSGPELKKPGETVKISCKASGYTFTKYGMNWVKQAPGKGLKWMGWINTYTEEPTYGDDFKGRFAFSLETSASTANLQINNLKSEDTATYFCARFGSFVDYWGQGTSVTVSS
VL: QIVMTQAAFSNPVTLGTSGSISCRSSKSLLHSNGITYLYWYLQKPGQSPQLLIYQMSNLASGVPDRFSSSGSGTDFTLRISRVEAEDVGVYYCAQNLELPRTFGGGTKLEMKR
**Q.** How did the Kd [3] turn out when B2 was run?
**A.** 0.9 nM

B3: modified XPA23 Y208L mutant (antibody, V domains shown)
VH: EVQLLESGGGLVQPGGSLRLSCAASGFTFSKYFMFWVRQAPGKGLEWVSVISPSGGMTRYADSVKGRFTISRDNSKNTLYLQMNSLRAEDTAVYYCARVGLGGNSDYWGQGTLVTVSS
VL: DIQMTQSPSSVSASVGDRLTIICRASQDINRWLAWYQQTPGNAPKLLIHSATSLQSGVPSRFSGSGSGTDFTLTINSLQPEDFATYYCQQADSFPLTFGGGTKVEIK
**Q.** For B3, which Kd [4] is on record?
**A.** 16.2 nM
